Assay results from the supplement of paper PMC10724198.
± gives the standard deviation of the averaged measurements.

System: Saccharomyces cerevisiae
Assay: protein stability index of tFT-peptide fusion (C-terminal peptide) (PSI (0-1 scale)); higher = more stable (slower turnover)
Settings: temperature: 30 C
Protocol: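 MPS profiling in S. cerevisiae of the yeast C-terminome library: the last 12 aa of each annotated ORF are fused to the C-terminus of a sfGFP-mCherry timer, after a GGGS linker. Cells are FACS-sorted into 8 mCherry/sfGFP bins and deep-sequenced. PSI runs from 0 (unstable) to 1 (stable); wild type and das1Δ backgrounds, two technical replicates each.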

[1] = genetic background: das1 deletion

Row | Sequence | protein stability index [1] | protein stability index (genetic background: wild type)
1 | DDEIDSEEDENA [SDD3 C-terminal 12 aa] | 0.69 ± 0.035 | 0.653 ± 0.018
2 | DDFKKAFREKRK [ALY1 C-terminal 12 aa] | 0.729 ± 0.013 | 0.676 ± 0.044
3 | DEDDDEDVTDQE [DLS1 C-terminal 12 aa] | 0.6663 ± 0.004 | 0.677 ± 0.013
4 | DEEEEIEPEVKA [SBA1 C-terminal 12 aa] | 0.678 ± 0.017 | 0.685 ± 0.027
5 | DEQPTLSQSKTK [DAD1 C-terminal 12 aa] | 0.708 ± 0.012 | 0.714 ± 0.076
6 | DFIKNPNDYFKQ [BEM2 C-terminal 12 aa] | 0.73319 ± 0.00064 | 0.729 ± 0.1
7 | DFSASSSVEEVK [MFT1 C-terminal 12 aa] | 0.7088 ± 0.004 | 0.662 ± 0.011
8 | DGTTSKDSEKKK [COA4 C-terminal 12 aa] | 0.708 ± 0.011 | 0.648 ± 0.011
9 | DHDVSLEEVINI [MCY1 C-terminal 12 aa] | 0.722 ± 0.034 | 0.706 ± 0.02
10 | DIFDPVDFVSFF [OAF3 C-terminal 12 aa] | 0.772 ± 0.033 | 0.752 ± 0.034
11 | DILGFKIAPRSA [YGR210C C-terminal 12 aa] | 0.682 ± 0.049 | 0.7073 ± 0.0013
12 | DILGSLLAKKRK [MRE11 C-terminal 12 aa] | 0.681 ± 0.023 | 0.672 ± 0.022
13 | DILLSCIADLTI [POL2 C-terminal 12 aa] | 0.71 ± 0.04 | 0.707 ± 0.054
14 | DISDSEGGLFEC [PCI8 C-terminal 12 aa] | 0.69 ± 0.085 | 0.694 ± 0.085
15 | DIYNQLHMFGEK [IGD1 C-terminal 12 aa] | 0.663 ± 0.0086 | 0.688 ± 0.01
16 | DKEVVYFDEWTI [RPC34 C-terminal 12 aa] | 0.726 ± 0.062 | 0.729 ± 0.032
17 | DKLAKLLSLDIH [MSH3 C-terminal 12 aa] | 0.7167 ± 0.0065 | 0.708 ± 0.025
18 | DKVPVHYPPVVE [SYM1 C-terminal 12 aa] | 0.686 ± 0.028 | 0.709 ± 0.045
19 | DLAERLAETEIK [RNA1 C-terminal 12 aa] | 0.703 ± 0.0088 | 0.692 ± 0.024
20 | DLASFIKKSLSS [TML25 C-terminal 12 aa] | 0.694 ± 0.017 | 0.734 ± 0.032
21 | DLKIYLQQDESL [YEL023C C-terminal 12 aa] | 0.709 ± 0.028 | 0.672 ± 0.015

Row | Sequence | protein stability index [1] | protein stability index (genetic background: wild type)
22 | DNPETKNGRENK [ECM10 C-terminal 12 aa] | 0.675 ± 0.016 | 0.6426 ± 0.00097
23 | DPNGILNPYKYI [DLD2 C-terminal 12 aa] | 0.708 ± 0.024 | 0.6117 ± 0.003
24 | DQFQLITQGIYS [PIK1 C-terminal 12 aa] | 0.722 ± 0.034 | 0.717 ± 0.099
25 | DQLLALYEDGLL [AHC2 C-terminal 12 aa] | 0.7371 ± 0.0043 | 0.72 ± 0.043
26 | DRVGEVFAKLFG [NNR2 C-terminal 12 aa] | 0.7119 ± 0.0012 | 0.728 ± 0.011
27 | DSERKVLSEALL [KAP114 C-terminal 12 aa] | 0.676 ± 0.013 | 0.6846 ± 0.0027
28 | DSFFFDVLAQLP [YLR434C C-terminal 12 aa] | 0.7357 ± 0.0072 | 0.686 ± 0.012
29 | DTCKSVLYCSTS [YMR193C-A C-terminal 12 aa] | 0.694 ± 0.022 | 0.65 ± 0.0067
30 | DTHTNEIIKKEI [HRQ1 C-terminal 12 aa] | 0.6984 ± 0.004 | 0.695 ± 0.032
31 | DVFEEIGYSMKD [SAE3 C-terminal 12 aa] | 0.715 ± 0.0034 | 0.789 ± 0.041
32 | DVHDDVESDDEI [ALF1 C-terminal 12 aa] | 0.6961 ± 0.0065 | 0.7005 ± 0.0059
33 | DVKPQENGNDSS [REG1 C-terminal 12 aa] | 0.71 ± 0.014 | 0.705 ± 0.037
34 | DWEAIDAQTIKL [FAT1 C-terminal 12 aa] | 0.746 ± 0.0075 | 0.768 ± 0.021
35 | DYKKFIEDVLRQ [MLC1 C-terminal 12 aa] | 0.696 ± 0.033 | 0.702 ± 0.04
36 | EAELEEDWGMYG [YBR062C C-terminal 12 aa] | 0.7114 ± 0.0068 | 0.7097 ± 0.0017
37 | EANNLLNIIKGN [MRP51 C-terminal 12 aa] | 0.6795 ± 0.0042 | 0.294 ± 0.035
38 | EAQLSRSEVLLV [COS2 C-terminal 12 aa] | 0.648 ± 0.0028 | 0.6242 ± 0.0027
39 | EAQLTRKQAPPV [COS9 C-terminal 12 aa] | 0.7035 ± 0.004 | 0.699 ± 0.015
40 | EATYKVLQQLHK [ADE8 C-terminal 12 aa] | 0.71 ± 0.012 | 0.7224 ± 0.00099
41 | EAVYELAKMSLA [MYG1 C-terminal 12 aa] | 0.703 ± 0.025 | 0.6777 ± 0.0052
42 | ECDGITVPEKLT [MSC6 C-terminal 12 aa] | 0.682 ± 0.012 | 0.708 ± 0.011

Row | Sequence | protein stability index [1] | protein stability index (genetic background: wild type)
43 | ECRARKASSNRS [YGR109W-A C-terminal 12 aa] | 0.681 ± 0.0073 | 0.707 ± 0.024
44 | EDAEKRADEMDD [SRM1 C-terminal 12 aa] | 0.691 ± 0.034 | 0.675 ± 0.033
45 | EECYLHSESFGY [FRE7 C-terminal 12 aa] | 0.68 ± 0.028 | 0.664 ± 0.028
46 | EEFINKLVKSMN [RPL7A C-terminal 12 aa] | 0.698 ± 0.029 | 0.705 ± 0.097
47 | EEIVGRHSDSAT [YAP6 C-terminal 12 aa] | 0.6926 ± 0.0035 | 0.69 ± 0.011
48 | EEKKKKKIAESK [TIM50 C-terminal 12 aa] | 0.681 ± 0.06 | 0.64 ± 0.044
49 | EELKKLSNPDMN [CUP9 C-terminal 12 aa] | 0.713 ± 0.059 | 0.686 ± 0.0076
50 | EETEAQAEPVEA [RPS3 C-terminal 12 aa] | 0.687 ± 0.013 | 0.663 ± 0.021
51 | EFEILDAKKEKD [PIM1 C-terminal 12 aa] | 0.699 ± 0.0047 | 0.681 ± 0.056
52 | EFKCMSVITAQQ [SEH1 C-terminal 12 aa] | 0.67622 ± 0.00052 | 0.687 ± 0.025
53 | EFMKTNTGSKKV [CCR4 C-terminal 12 aa] | 0.703 ± 0.027 | 0.677 ± 0.03
54 | EFTDEWFKEHSS [STH1 C-terminal 12 aa] | 0.757 ± 0.0035 | 0.719 ± 0.0073
55 | EGGDLEYQHVKI [YCR043C C-terminal 12 aa] | 0.691 ± 0.0077 | 0.682 ± 0.03
56 | EGIFPANYVRVS [YSC84 C-terminal 12 aa] | 0.663 ± 0.01 | 0.673 ± 0.0097
57 | EGPRGETIVERF [YJL047C-A C-terminal 12 aa] | 0.698 ± 0.008 | 0.6955 ± 0.0027
58 | EGVGCRYPVVLI [YDR467C C-terminal 12 aa] | 0.7038 ± 0.0063 | 0.666 ± 0.019
59 | EHKGSIEAGFTS [CSS2 C-terminal 12 aa] | 0.698 ± 0.023 | 0.715 ± 0.025
60 | EHRNIEWEKKTA [POL4 C-terminal 12 aa] | 0.7 ± 0.014 | 0.694 ± 0.054
61 | EINSDFIENFEE [MSH4 C-terminal 12 aa] | 0.701 ± 0.017 | 0.699 ± 0.046
62 | EKEFTGNSQSEK [NMA111 C-terminal 12 aa] | 0.6859 ± 0.006 | 0.742 ± 0.039
63 | EKKKNPYWYYQW [GEP3 C-terminal 12 aa] | 0.735 ± 0.009 | 0.673 ± 0.025

Row | Sequence | protein stability index [1] | protein stability index (genetic background: wild type)
64 | EKQQRRNMKNAL [RRS1 C-terminal 12 aa] | 0.704 ± 0.034 | 0.703 ± 0.01
65 | EKTRKNISKFFS [CPR7 C-terminal 12 aa] | 0.713 ± 0.022 | 0.707 ± 0.013
66 | EKVIDGSIEHSS [YNR061C C-terminal 12 aa] | 0.6642 ± 0.0044 | 0.703 ± 0.017
67 | EKVRNEGFIKNP [GPM2 C-terminal 12 aa] | 0.716 ± 0.03 | 0.702 ± 0.075
68 | ELANILESDITL [CIN1 C-terminal 12 aa] | 0.70881 ± 0.00043 | 0.712 ± 0.022
69 | ELDEIAASLENL [TPM1 C-terminal 12 aa] | 0.7088 ± 0.0027 | 0.69 ± 0.01
70 | ELLCKGICKAAE [HEL1 C-terminal 12 aa] | 0.6857 ± 0.0035 | 0.674 ± 0.017
71 | EMEKNKLKRKRN [YNG2 C-terminal 12 aa] | 0.668 ± 0.054 | 0.699 ± 0.014
72 | EMVKKHALNGRI [NRS1 C-terminal 12 aa] | 0.7115 ± 0.004 | 0.671 ± 0.025
73 | ENKNWSIITPSG [YBL086C C-terminal 12 aa] | 0.68945 ± 7e-05 | 0.684 ± 0.018
74 | EPMESLRSTTKY [PTR2 C-terminal 12 aa] | 0.734 ± 0.022 | 0.697 ± 0.01
75 | EPNGYIKNLKWT [RXT3 C-terminal 12 aa] | 0.713 ± 0.023 | 0.633 ± 0.034
76 | ERLIQQGYLQKI [PSF1 C-terminal 12 aa] | 0.698 ± 0.024 | 0.683 ± 0.035
77 | ERNGWKFFFKEV [YHR137C-A C-terminal 12 aa] | 0.69374 ± 0.00051 | 0.6597 ± 0.0014
78 | ERNKKSRPPIYK [ARL3 C-terminal 12 aa] | 0.734 ± 0.03 | 0.735 ± 0.09
79 | ETLAKLREQGLM [TOM70 C-terminal 12 aa] | 0.6797 ± 0.0058 | 0.692 ± 0.015
80 | EVHALNRDHLVA [YHR138C C-terminal 12 aa] | 0.692 ± 0.0076 | 0.674 ± 0.023
81 | EVLDQLEPQDSS [MCM6 C-terminal 12 aa] | 0.699 ± 0.019 | 0.6847 ± 0.0064
82 | EYDDDSGNQGVW [GRE1 C-terminal 12 aa] | 0.6914 ± 0.00077 | 0.739 ± 0.049
